Results: paper doi:10.1101/2023.08.25.554789

Experiments:
apCC-Hex-LLIA [1] = experiment: AUC
apCC-Hex-LLIA [2] = experiment: crystal structure

stoichiometry N (apCC-Hex-LLIA [1]): 6
stoichiometry N (apCC-Hex-LLIA [2]): 6
Substance: apCC-Hex-LLIA (peptide)
